Reference: publication PMC11964227, “Critical functions and key interactions mediated by the RNase E scaffolding domain in Pseudomonas aeruginosa” (PLOS Genetics, 2025)

Key:
[1] = molecular target: T1, T18-RNase E^1-1057 (P. aeruginosa, UniProt Q9HZM8 1-1057); assay: two-hybrid; adenylate-cyclase-based bacterial two-hybrid in E. coli BTH101 (T18 and T25 fusions); MacConkey agar with maltose and IPTG, 30°C then room temperature; β-galactosidase activity with ONPG; conditions: partners not purified
T1 construct: source: bacterial two-hybrid fusion (pUT18C), E. coli BTH101

[2] = molecular target: T2, His10Smt3-tagged PNPase (P. aeruginosa, UniProt Q9HV59 1-701); assay: pull-down; purified Flag-tagged RNase E proteins (20-25 µg) immobilised on anti-Flag M2 magnetic beads, 5 µg of PNPase or RhlB in 100 µL buffer H (50 mM Tris-HCl pH 8.0, 150 mM NaCl, 0.01% Triton X-100), 1 hour at 4 °C; SDS-PAGE, Coomassie Blue; conditions: both partners purified
T2 construct: Polyribonucleotide phosphorylase (PNPase), P. aeruginosa, pnp; also called His10-Smt3-PNPase; source: soluble bacterial lysates, purified (nickel-agarose)
T2 sequence (looked up): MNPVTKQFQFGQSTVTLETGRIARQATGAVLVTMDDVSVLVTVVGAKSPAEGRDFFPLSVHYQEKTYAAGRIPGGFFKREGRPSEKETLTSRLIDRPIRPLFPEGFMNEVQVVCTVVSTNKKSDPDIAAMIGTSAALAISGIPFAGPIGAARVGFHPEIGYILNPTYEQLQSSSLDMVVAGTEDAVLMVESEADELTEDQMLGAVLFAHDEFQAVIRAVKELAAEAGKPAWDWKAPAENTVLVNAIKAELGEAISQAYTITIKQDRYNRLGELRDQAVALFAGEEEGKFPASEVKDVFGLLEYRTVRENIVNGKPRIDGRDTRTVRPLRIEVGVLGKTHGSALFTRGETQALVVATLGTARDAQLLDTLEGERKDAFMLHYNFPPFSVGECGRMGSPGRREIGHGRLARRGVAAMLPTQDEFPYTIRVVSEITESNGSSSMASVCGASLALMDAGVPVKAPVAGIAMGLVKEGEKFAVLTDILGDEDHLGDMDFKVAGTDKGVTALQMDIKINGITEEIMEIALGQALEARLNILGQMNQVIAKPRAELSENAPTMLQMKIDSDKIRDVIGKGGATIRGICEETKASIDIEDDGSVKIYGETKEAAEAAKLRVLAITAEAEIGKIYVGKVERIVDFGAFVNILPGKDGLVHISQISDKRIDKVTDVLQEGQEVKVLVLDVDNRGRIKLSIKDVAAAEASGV

B1: T25-PNPase (enzyme, P. aeruginosa, UniProt Q9HV59 1-701, looked up)
chain: MNPVTKQFQFGQSTVTLETGRIARQATGAVLVTMDDVSVLVTVVGAKSPAEGRDFFPLSVHYQEKTYAAGRIPGGFFKREGRPSEKETLTSRLIDRPIRPLFPEGFMNEVQVVCTVVSTNKKSDPDIAAMIGTSAALAISGIPFAGPIGAARVGFHPEIGYILNPTYEQLQSSSLDMVVAGTEDAVLMVESEADELTEDQMLGAVLFAHDEFQAVIRAVKELAAEAGKPAWDWKAPAENTVLVNAIKAELGEAISQAYTITIKQDRYNRLGELRDQAVALFAGEEEGKFPASEVKDVFGLLEYRTVRENIVNGKPRIDGRDTRTVRPLRIEVGVLGKTHGSALFTRGETQALVVATLGTARDAQLLDTLEGERKDAFMLHYNFPPFSVGECGRMGSPGRREIGHGRLARRGVAAMLPTQDEFPYTIRVVSEITESNGSSSMASVCGASLALMDAGVPVKAPVAGIAMGLVKEGEKFAVLTDILGDEDHLGDMDFKVAGTDKGVTALQMDIKINGITEEIMEIALGQALEARLNILGQMNQVIAKPRAELSENAPTMLQMKIDSDKIRDVIGKGGATIRGICEETKASIDIEDDGSVKIYGETKEAAEAAKLRVLAITAEAEIGKIYVGKVERIVDFGAFVNILPGKDGLVHISQISDKRIDKVTDVLQEGQEVKVLVLDVDNRGRIKLSIKDVAAAEASGV
notes: Polyribonucleotide phosphorylase (PNPase), P. aeruginosa, pnp; source: bacterial two-hybrid fusion (pKT25), E. coli BTH101
- fold increase of β-galactosidase activity compared to empty vector controls [1]: 11 fold

B2: T25-RhlB (enzyme, P. aeruginosa, UniProt Q9HXE5 1-397, looked up)
chain: MVEPQEGKTRFHDFNLAPSLMHAIHDLGFPYCTPIQAQVLGFTLRGQDAIGRAQTGTGKTAAFLISIITQLLQTPPPKERYMGEPRALIIAPTRELVVQIAKDAAALTKYTGLNVMTFVGGMDFDKQLKQLEARFCDILVATPGRLLDFNQRGEVHLDMVEVMVLDEADRMLDMGFIPQVRQIIRQTPHKGERQTLLFSATFTDDVMNLAKQWTVDPAIVEIEPENVASDTVEQHVYAVAGSDKYKLLYNLVAQNNWERVMVFANRKDEVRRIEERLTKDGISAAQMSGDVPQHKRIRTLEGFREGKIRVLVATDVAGRGIHIDGISHVINFTLPEDPDDYVHRIGRTGRAGASGTSISFAGEDDAFALPPIEELLGRKITCEMPPAELLKPVPRKH
notes: RNA helicase RhlB, P. aeruginosa; source: bacterial two-hybrid fusion (pKT25), E. coli BTH101
- fold increase of β-galactosidase activity compared to empty vector controls [1]: 5 fold

B3: Flag-RNase E^572-1057 (domain or fragment, P. aeruginosa, UniProt Q9HZM8 572-1057, looked up)
chain: AAKPAETSKPAAERQTRQDERRNGRQQNRRRDGRDGNRRDEERKPREERAERQPREERAERPNREERSERRREERAERPAREERQPREGREERAERTPREERQPREGREGREERSERRREERAERPAREERQPREGREERAERPAREERQPREDRQARDAAALEAEALPNDESLEQDEQDDTDGERPRRRSRGQRRRSNRRERQREVSGELEGSEATDNAAAPLNTVAAAAAAGIAVASEAVEANVEQAPATTSEAASETTASDETDASTSEAVETQGADSEANTGETADIEAPVTVSVVRDEADQSTLLVAQATEEAPFASESVESREDAESAVQPATEAAEEVAAPVPVEVAAPSEPAATEEPTPAIAAVPANATGRALNDPREKRRLQREAERLAREAAAAAEAAAQAAPAVEEIPAVASEEASAQEEPAAPQAEEITQADVPSQADEAQEAVQAEPEASGEGAADTEHAKKTEESETSRPHA
notes: The results call the C-terminal tag 3xFlag, the methods Twin-Strep-Flag; also called RNase E CTD with no MTS; source: soluble bacterial lysates, purified (nickel-agarose, 250 mM imidazole fraction); not shown: His10-Smt3, N-terminal, kept; Twin-Strep-Flag, C-terminal, kept
- binding result [2]: binds
